Test system: MS2 coat protein
Assay: apparent KD of MS2 coat protein; designed switch direction (-1 OFF switch, 1 ON switch): -1; higher = weaker reporter binding
How it was run: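 RNA switches sharing common flanks were transcribed by stalled E. coli RNA polymerase on Illumina chips. A doubling series of SNAP-549-labelled MS2 coat protein, from 0.7 or 1.5 nM to 3 µM, was applied in Tris-HCl pH 7.5 buffer with KCl, MgCl2, BSA, DTT, tRNA and Tween-20. Each step lasted 0.8–1.5 h at the bottom of the series and 10–20 min at the top. Normalised cluster fluorescence was curve-fitted, giving apparent KD as the per-design median over clusters.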

[1] = Eterna round: R95, input ligand: microRNA oligo, concentration not stated
[2] = Eterna round: R95, input ligand: FMN 200 uM
[3] = Eterna round: R95, input ligand: none
[4] = input ligand: microRNA oligo, concentration not stated

Sequence | apparent KD of MS2 coat protein [1] | apparent KD of MS2 coat protein [2] | apparent KD of MS2 coat protein [3] | apparent KD of MS2 coat protein (input ligand: FMN 200 uM) | apparent KD of MS2 coat protein [4] | apparent KD of MS2 coat protein (input ligand: none)
CAUACACAUGAGGAUCACCCAUGUGAGGAUAUGCGUACGUUGUCCGUAGGCGACGUGCGCAGAAGGCGCAAGGU [JL-ex1-3.17 Eli mod] (puzzle: Exclusion 1) | 50.4 nM | – | – | – | – | –
CAUACAGUAGUUAGGAUAUUGCAACGUAUACGGAUCGAGAAGGGACAUGAGGAUCACCCAUGUAGAUUGUAAAG [EX-4 Malc #9] (puzzle: Brourd's mod of Exclusion 4) | 34 nM | – | – | – | – | –
CAUACUCAAGUCAGGAUAUAGACUCGGAUACGGAUCUAGAAGGGACAUGAGGAUCACCCAUGUAGAGAGUAAAG [EX-4 Malc #26] (puzzle: Brourd's mod of Exclusion 4) | 28.1 nM | 60.9 nM | 25 nM | – | – | –
CAUACUCAAGUGAGGAUAUUGUCUCGGAUACGAAACAAGAAGGCACAUGAGGAUCACCCAUGUAGAGAGUAAAG [EX-4 Malc #30] (puzzle: Brourd's mod of Exclusion 4) | 25.1 nM | 136 nM | 25.6 nM | – | – | –
CAUGAGGUAGGAUAUACGAUAAUAUAGGGUAGAUAUAUAACACAUGAGGAUCACCCAUGUAGAAGGACCAGUAG [Mat - Exclusion 2 - Mod of my Tesla design - D67] (puzzle: Exclusion 2) | 29.8 nM | – | – | – | – | –
CAUGAUCUUCGGAUCAUGGACAUGAGGAUCACCCAUGUCACGAGCAGAUCUUCAUGCAAGCUUUUUGCUCGUCUUAU [Sensor v3 - Turn-off variant 1 - 38] (puzzle: Sensor v3, turn-off variant 1) | 405 nM | 28 nM | 29.8 nM | – | – | –
CAUGAUCUUCGGAUCAUGUACAUGAGGAUCACCCAUGUGACGAGUUUAUGGGUGAACAAGCUUUUUGCUCGUCUUAU [Sensor v3 - Turn-off variant 1 - 6] (puzzle: Sensor v3, turn-off variant 1) | 11.2 nM | 60 nM | 68.9 nM | – | – | –
CAUGAUCUUCGGAUCAUGUACAUGAGGAUCACCCAUGUUACGAGCAGAUUUUCAUACAAGCUUUUUGCUCGUCUUAU [Sensor v3 - Turn-off variant 1 - 31] (puzzle: Sensor v3, turn-off variant 1) | 67.3 nM | 27.6 nM | 28.7 nM | – | – | –
CAUGAUUGACGAGGAUAUUGUUCUACAUCACGACGAGAAGGCGUCUGUCACAUGAGGAUCACCCAUGUGAGUCUGGUGAAUGAG [Ex NG1 #82] (Eterna round: R96, puzzle: Exclusion NG 1) | – | – | – | 31 nM | 17.2 nM | 21.8 nM
CAUGGCUACUAGGAUAUGUCGCGAUGGACGCAAACAGAAGGAGUAACAUGAGGAUCACCCAUGUUGUGACCUAA [Mabiaris] (Eterna round: R97, puzzle: Exclusion 6) | – | – | – | 200 nM | – | 28.9 nM
CAUUACUGCAGGCUUCGGGACAUGAGGAUCACCCAUGUUCGUCUUAUUGAUCUAGGUACGCUGACGUACCUAGAUCU [JL-sv1-2.25 Brourd mod] (puzzle: Sensor v3, turn-off variant 1) | 16.1 nM | 17.3 nM | 15.6 nM | – | – | –
CAUUAUUAUCGAGGAUAUCCUAUUGUAAUUCUGGGAGAAGGCGGACUCAACAUGAGGAUCACCCAUGUAAGACGGGUACUAGAG [Ex NG1 #23] (Eterna round: R96, puzzle: Exclusion NG 1) | – | – | – | 85.1 nM | 49.3 nM | 74.8 nM
CAUUCCGAGCGAGGAUAUCAGUAAAAGGGAAGCUGAGAAGGCGCAAACAUGAGGAUCACCCAUGUCACACGCGGGUAGUUUUCC [Ditiso] (Eterna round: R96, puzzle: Exclusion NG 1) | – | – | – | 13.9 nM | 9.74 nM | 14.3 nM
CAUUCGCAAGGAUAUUAUUGCAGUGACAUGAGGAUCACCCAUGUGUUCGUCAUGCAUCGAUGAGAAGGUGCAAGAC [Orater] (puzzle: Exclusion 5) | 36.4 nM | 29.9 nM | 41.2 nM | – | – | –
CAUUGUUAUCGAGGAUAUCGUAUUGAGAUUCUACGAGAAGGCGGACUAAACAUGAGGAUCACCCAUGUGAGACGGAUGCUUGGG [Ex NG1 #32] (Eterna round: R96, puzzle: Exclusion NG 1) | – | – | – | 36.7 nM | 22.3 nM | 25.7 nM
CCAAGCUGUGUGAGGAUAUGCUGAACCUUGGUUCAGCAGAAGGCACAUGAGGAUCACCCAUGUGAAAAGCUUGG [Mat - Exclusion 4 - JL Mod - D95] (puzzle: Brourd's mod of Exclusion 4) | 15.3 nM | – | – | – | – | –
CCACAUGCAGGAUAUGUAAAAUUUGACAUGAGGAUCACCCAUGUAGAUCCUGAAUUUCCUGCAGAAGGGCAUGUGG [Mat - Exclusion 5 - Eli Mod - D19] (Eterna round: R97, puzzle: Exclusion 5) | – | – | – | 605 nM | – | 149 nM

Sequence | apparent KD of MS2 coat protein [1] | apparent KD of MS2 coat protein [2] | apparent KD of MS2 coat protein [3] | apparent KD of MS2 coat protein (input ligand: FMN 200 uM) | apparent KD of MS2 coat protein [4] | apparent KD of MS2 coat protein (input ligand: none)
CCACGACAUGAGGAUCACCCAUGUGAGGAUAUGGCCUGAAAAGCGUGAGCAGUUUCUAUCAGAAGGCGCGUGGG [salish99_ex1_r4_063] (Eterna round: R97, puzzle: Exclusion 1) | – | – | – | 137 nM | – | 49.4 nM
CCACGACAUGAGGAUCACCCAUGUGAGGAUAUGGCCUGAAAAGCGUGAGCAGUUUGUAUCAGAAGGCGCGUGGG [salish99_ex1_r4_065] (Eterna round: R97, puzzle: Exclusion 1) | – | – | – | 79.1 nM | – | 53.8 nM
CCACGUCUGCAGGAUAUCAGAUUGUAAGAUCGAUGAGAAGGGCAGACAUGAGGAUCACCCAUGUCCGCCACCAA [EX6 C.10] (Eterna round: R97, puzzle: Exclusion 6) | – | – | – | 20.6 nM | – | 20.6 nM
CCACUGUCAGGAUAUCGUGCAUAACGUUUACAUUAUAUGUGCGAGAAGGGACAUGAGGAUCACCCAUGUAAACG [Omei Ex4 A28PK1] (Eterna round: R97, puzzle: Exclusion 4) | – | – | – | 604 nM | – | 566 nM
CCAGACGUUGUAGGAUAUCUGAAAGGAAGUGUAAGAGAAGGAUAGUGUCUGUAAAACAUGAGGAUCACCCAUGUGGGCGCAUCC [PowerStrip EXNG 1.30] (Eterna round: R96, puzzle: Exclusion NG 1) | – | – | – | – | 16.7 nM | –
CCAGCAAAUGUAAGGAUAUGCUGGUCCUUGGAUCAGCAGAAGGUACAUGAGGAUCACCCAUGUGUGAAAGCUGG [Eli bmx4 4.57] (Eterna round: R97, puzzle: Brourd's mod of Exclusion 4) | – | – | – | 674 nM | – | 166 nM
CCAGCGUAUGUGAGGAUAUGCUGGUCCUUGGAUCAGCAGAAGGCACAUGAGGAUCACCCAUGUGGUGUCGUUGG [JL bmx4 3.45] (puzzle: Brourd's mod of Exclusion 4) | 149 nM | – | – | – | – | –
CCAUAUAACUGAGGAUAUCAUCGCCACUGACGUUGAGAAGGCAGACAUGAGGAUCACCCAUGUGAUUUCUCAAUAUUAUACAUC [Prohibition 79 - Jieux - Exclusion NG 1] (Eterna round: R96, puzzle: Exclusion NG 1) | – | – | – | 118 nM | 33.8 nM | 40 nM
CCAUCGAGUGUGAGGAUAUGCUGGUCCUUGGAUCAGCAGAAGGCACAUGAGGAUCACCCAUGUGGAUACGGUGG [JL bmx4 3.19] (puzzle: Brourd's mod of Exclusion 4) | 30 nM | – | – | – | – | –
CCAUCGUGUGUGAGGAUAUGCUGGUCCUUGGAUCAGCAGAAGGCACAUGAGGAUCACCCAUGUGAAAACGAUGG [Mat - Exclusion 4 - JL Mod - D88] (puzzle: Brourd's mod of Exclusion 4) | 16.8 nM | – | – | – | – | –
CCAUGCACGCUGCGGUCCUACAUGAGGAUCACCCAUGUGGUCUGGUGGCGUGGGUCGCCGGACUUGGCUCGUCUUGA [salish99_S_TOV1_R5_022] (Eterna round: R97, puzzle: Sensor, turn-off variant 1) | – | – | – | 25.6 nM | – | 24.7 nM
CCAUGGAGUGUGAGGAUAUGCUGGUCCUUGGAUCAGCAGAAGGCACAUGAGGAUCACCCAUGUGAAUACCGUGG [Mat - Exclusion 4 - JL Mod - D83] (puzzle: Brourd's mod of Exclusion 4) | 31.4 nM | – | – | – | – | –
CCAUGGGAGCGAGGAUAUAGACCAUGGGAAGAUCUAGAAGGCGCUGACAUGAGGAUCACCCAUGUGUUCAUGAGGAGGUGGACA (Eterna round: R96, puzzle: Exclusion NG 1) | – | – | – | 73.7 nM | 74.4 nM | 47.1 nM
CCAUGGGUGCGAGGAUAUAGCCCAUGGGAAGAGCUAGAAGGCGCAGACAUGAGGAUCACCCAUGUGUUCAUGAGGAGGUGGACA (Eterna round: R96, puzzle: Exclusion NG 1) | – | – | – | 124 nM | 54.8 nM | 84.8 nM
CCCACAGGACAUGAGGAUCACCCAUGUGCGAUAUCCUGAGCGCAGGAUAUUUUCCCACGAAAGGAAGAGAAGGGCGCCGAAAGC [Eternabot solution 1] (Eterna round: R96, puzzle: Exclusion NG 3) | – | – | – | 24.6 nM | 29.6 nM | 44.3 nM
CCCACGCACCAAGGAUAUGUUCCGCACAUGAGGAUCACCCAUGUGGCCAGCGAUUCUGUGUGAGAACAGAAGGUGGUUAUGUUA [Eternabot solution 41] (Eterna round: R96, puzzle: Exclusion NG 2) | – | – | – | 468 nM | 315 nM | 219 nM
CCCAGACUAGGAUAUACAAGCCGUGGCGAGGUGGGCCUGGGACAUGAGGAUCACCCAUGUAGAAGGAGUAGGUC [Eternabot (Original) Solution 31] (Eterna round: R97, puzzle: Exclusion 2) | – | – | – | 127 nM | – | 136 nM

From the supplement of paper PMC9170038
